Experimental data from paper doi:10.1101/2025.04.11.648320 (bioRxiv, 2025).
Several values for one entry are separate records, joined by “and”; a condition that tells them apart may be missing. Identical values can stand only once.

Target: the molecule itself
Experiment: SDS-PAGE with immunoblot

B1: HIR2-HA expressed in Nicotiana benthamiana (natural protein, Arabidopsis thaliana, UniProt Q9SRH6 1-285, looked up)
chain: MGNLFCCVLVKQSDVAVKERFGKFQKVLNPGLQFVPWVIGDYVAGTLTLRLQQLDVQCETKTKDNVFVTVVASIQYRVLADKASDAFYRLSNPTTQIKAYVFDVIRACVPKLNLDDVFEQKNEIAKSVEEELDKAMTAYGYEILQTLIIDIEPDQQVKRAMNEINAAARMRVAASEKAEAEKIIQIKRAEGEAESKYLSGLGIARQRQAIVDGLRDSVLGFAGNVPGTSAKDVLDMVMMTQYFDTMRDIGATSKSSAVFIPHGPGAVSDVAAQIRNGLLQANNAS
  stoichiometry N: 2 and 4 and 6
